Test results: article PMC4533223, “Structures of CD6 and Its Ligand CD166 Give Insight into Their Interaction” (Structure(London, England:1993), 2015)
Where a chain is given by its changes, count along the chain named. Where two headings read alike, the source gives them in different places.

Legend:
[1] = biological target: T1, human CD6-CD4d3+4 chimera, SNP variant S351N (human, UniProt P30203 18-402, S351N, N-linked glycosylation at N351 (shown by mass spectrometry)); test: SPR; BIAcore 3000; CD6 S351, S351A and S351N (CD4d3+4 chimeras) immobilised via OX68 mAb, rat CD4 d3+4 in the control flow cell; soluble CD166 VVC injected, top 2.5 μM plus nine two-fold dilutions; 25 °C, HBS-EP, 20 μl/min; KD from equilibrium binding (Langmuir 1:1), koff from one phase exponential decay; conditions: one partner purified
T1 construct: human CD6 extracellular region with the membrane proximal stalk, as Dm2; S351N is a SNP found in 10% of the genomes analyzed; The 293T cells and the purification with OX68-Sepharose are told for the sample used in the glycosylation mass spectrometry; also called CD6 S351N; CD6-CD4d3+4 S351N; source: transiently expressed in 293T cells; not shown: rat CD4 domains 3 and 4 (CD4d3+4), C-terminal, kept
T1 sequence (looked up): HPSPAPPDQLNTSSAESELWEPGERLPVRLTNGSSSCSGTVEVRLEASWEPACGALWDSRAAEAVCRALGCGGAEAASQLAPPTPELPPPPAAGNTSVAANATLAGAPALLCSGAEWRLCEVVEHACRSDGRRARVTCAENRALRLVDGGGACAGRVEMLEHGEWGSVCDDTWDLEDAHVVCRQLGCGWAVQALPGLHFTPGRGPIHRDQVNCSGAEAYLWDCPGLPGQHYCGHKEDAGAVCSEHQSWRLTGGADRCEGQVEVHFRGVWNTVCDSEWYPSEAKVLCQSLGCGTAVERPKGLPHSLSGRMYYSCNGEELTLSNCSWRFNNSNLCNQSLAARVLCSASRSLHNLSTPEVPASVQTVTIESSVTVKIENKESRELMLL

[2] = biological target: T2, human CD6 domains 1-3 plus stalk fused to rat CD4 domains 3 and 4 (CD6 d1-3S, wild type, S351) (human, UniProt P30203 18-402, biotin on the tag (immobilisation to streptavidin, Figure S1)); test: as above; conditions: one partner purified
T2 construct: also called CD6-CD4d3+4; CD6 WT; not shown: rat CD4 domains 3 and 4 (CD4d3+4), C-terminal, kept
T2 sequence (looked up): T1 sequence (looked up) with N334S

[3] = biological target: T3, human CD6-CD4d3+4 chimera, mutant S351A (human, UniProt P30203 18-402, S351A); test: as above; conditions: one partner purified
T3 construct: human CD6 extracellular region with the membrane proximal stalk, as Dm2; also called CD6 S351A; source: mutant made with a Q5 SDM kit; not shown: rat CD4 domains 3 and 4 (CD4d3+4), C-terminal, kept
T3 sequence (looked up): T1 sequence (looked up) with N334A

[4] = biological target: T2, human CD6 domains 1-3 plus stalk fused …; test: SPR; BIAcore 3000; CD6-CD4d3+4 chimeras (d1-3S, d2-3S, d3S) immobilised via the biotin tag to streptavidin, rat CD4 d3+4 in the control flow cell; soluble CD166 VVC injected, top 1.0 μM plus nine two-fold dilutions; 37 °C, HBS-EP, 20 μl/min; equilibrium binding, Langmuir 1:1 fit; conditions: one partner purified
[5] = biological target: T1, human CD6-CD4d3+4 chimera, SNP variant …; test: SPR; BIAcore 3000; CD6 S351, S351A and S351N (CD4d3+4 chimeras) immobilised via OX68 mAb, rat CD4 d3+4 in the control flow cell; soluble CD166 VVC injected, top 2.5 μM plus nine two-fold dilutions; 25 °C, HBS-EP, 20 μl/min; KD from equilibrium binding (Langmuir 1:1), koff from one phase exponential decay; conditions: one partner purified; remark: listed apart in the source
[6] = biological target: T2, human CD6 domains 1-3 plus stalk fused …; test: as above; conditions: one partner purified; remark: listed apart in the source
[7] = biological target: T3, human CD6-CD4d3+4 chimera, mutant S351A; test: as above; conditions: one partner purified; remark: listed apart in the source
[8] = biological target: human CD6 domain 3 plus stalk fused to rat CD4 domains 3 and 4 (CD6 d3S) (human) (UniProt P30203); test: SPR; BIAcore 3000; CD6-CD4d3+4 chimeras (d1-3S, d2-3S, d3S) immobilised via the biotin tag to streptavidin, rat CD4 d3+4 in the control flow cell; soluble CD166 VVC injected, top 1.0 μM plus nine two-fold dilutions; 37 °C, HBS-EP, 20 μl/min; equilibrium binding, Langmuir 1:1 fit
[9] = biological target: human CD6 domains 2-3 plus stalk fused to rat CD4 domains 3 and 4 (CD6 d2-3S) (human) (UniProt P30203); test: as above
[10] = biological target: the molecule itself; test: SEC-MALS; Superdex200 10/30 in 50 mM Tris.HCl, pH 7.5, 150 mM NaCl, 0.4 ml/min; CD6 alone 39 µM, CD166 VVC alone 28 µM, equimolar mixture 27 µM each; samples diluted approximately 10-fold on the column
[11] = biological target: T2, human CD6 domains 1-3 plus stalk fused …; test: SPR; BIAcore 3000; CD6-CD4d3+4 chimeras (d1-3S, d2-3S, d3S) immobilised via the biotin tag to streptavidin, rat CD4 d3+4 in the control flow cell; soluble CD166 VVC injected, top 1.0 μM plus nine two-fold dilutions; 37 °C, HBS-EP, 20 μl/min; equilibrium binding, Langmuir 1:1 fit; conditions: one partner purified; remark: listed apart in the source
[12] = biological target: human CD6 domain 3 plus stalk fused to rat CD4 domains 3 and 4 (CD6 d3S) (human) (UniProt P30203); test: as above; remark: listed apart in the source
[13] = biological target: human CD6 domains 2-3 plus stalk fused to rat CD4 domains 3 and 4 (CD6 d2-3S) (human) (UniProt P30203); test: as above; remark: listed apart in the source
[14] = biological target: the molecule itself; test: native MS; each protein alone at 20 μM; buffer exchanged into 250 mM ammonium acetate pH 7.6; dimer to monomers
[15] = biological target: T4, human CD6 S351N (SNP variant) (human, UniProt P30203 18-668, S351N, N-linked glycan at N351; N28, N49, N229 glycosylated, N339 appears partially glycosylated); test: SPR; soluble CD166 VVC over streptavidin-immobilized chimeric CD6 forms and variants; conditions: both partners purified
T4 construct: human CD6 with the SNP S351N, found in 10% of the genomes analyzed; made by mutagenesis; Probably the same chimeric, streptavidin-immobilized format as m3 (surmised); construct in the supplement
T4 sequence (looked up): T1 sequence (looked up)

B1: soluble recombinant human CD166 VVC (IgSF domains 1-3, two V-like domains and one C-like domain), His-tagged (domain or fragment, UniProt Q13740 28-335, looked up)
chain: WYTVNSAYGDTIIIPCRLDVPQNLMFGKWKYEKPDGSPVFIAFRSSTKKSVQYDDVPEYKDRLNLSENYTLSISNARISDEKRFVCMLVTEDNVFEAPTIVKVFKQPSKPEIVSKALFLETEQLKKLGDCISEDSYPDGNITWYRNGKVLHPLEGAVVIIFKKEMDPVTQLYTMTSTLEYKTTKADIQMPFTCSVTYYGPSGQKTIHSEQAVFDIYYPTEQVTIQVLPPKNAIKEGDNITLKCLGNGNPPPEEFLFYLPGQPEGIRSSNTYTLTDVRRNATGDYKCSLIDKKSMIASTAITVHYLDLS
notes: signal peptide in the construct; human CD166 (ALCAM) residues 1-335 with the native leader; Deglycosylated with EndoHf only for crystallization; also called ALCAM; source: purified (NiNTA, Superdex200)
B1 showed a Kd [1] of 0.599 µM, a koff [1] of 0.337 s⁻¹ and a Kd [2] of 0.12 µM. The koff [2] was 0.072 s⁻¹, the Kd [3] was 0.083 µM and the koff [3] was 0.049 s⁻¹. It also gave a Kd [4] of 0.09 µM, a Kd [5] of 0.5 µM and a koff [5] of 0.4 s⁻¹. It also gave a Kd [6] of 0.09 µM, a koff [6] of 0.07 s⁻¹ and a Kd [7] of 0.06 µM. It also gave a koff [7] of 0.05 s⁻¹, a Kd [8] of 0.1 µM and a Kd [9] of 0.09 µM. The “stoichiometry N” value [10] was 2, the Kd [11] was 0.077 µM and the Kd [12] was 0.086 µM. It also gave a Kd [13] of 0.081 µM.

B2: human CD6 SRCR domains 1-3, His-tagged (residues 1-364) (domain or fragment, UniProt P30203 18-364, looked up)
chain: HPSPAPPDQLNTSSAESELWEPGERLPVRLTNGSSSCSGTVEVRLEASWEPACGALWDSRAAEAVCRALGCGGAEAASQLAPPTPELPPPPAAGNTSVAANATLAGAPALLCSGAEWRLCEVVEHACRSDGRRARVTCAENRALRLVDGGGACAGRVEMLEHGEWGSVCDDTWDLEDAHVVCRQLGCGWAVQALPGLHFTPGRGPIHRDQVNCSGAEAYLWDCPGLPGQHYCGHKEDAGAVCSEHQSWRLTGGADRCEGQVEVHFRGVWNTVCDSEWYPSEAKVLCQSLGCGTAVERPKGLPHSLSGRMYYSCNGEELTLSNCSWRFNNSNLCSQSLAARVLCSASR
modifications: N-linked glycans (endoglycosidase H sensitive; heterogeneity in mass caused by glycosylation; GlcNAc seen at N229 in the crystal)
notes: signal peptide in the construct; Deglycosylated with EndoHf only for crystallization; source: purified (NiNTA, Superdex200)
In the case of B2, the “stoichiometry N” value [14] is reported as 2.

B3: human CD166 IgSF domains 1-3 (CD166 VVC), His-tagged (residues 1-335) (domain or fragment, UniProt Q13740 28-335, looked up)
chain: B1 chain
modifications: N-linked glycans (endoglycosidase H sensitive; heterogeneity in mass caused by glycosylation)
notes: signal peptide in the construct; In the crystal (PDB 5a2f) only domains 1 and 2 were resolved; the third domain was probably cleaved off before crystal growth; protein deglycosylated with EndoHf for crystallization; also called ALCAM; source: purified (NiNTA, Superdex200)
B3 was tested, and the “stoichiometry N” value [14] was 2 and the “fold weaker affinity than for CD6 S351” value [15] was 10 fold.
